What was measured:
ScECM4 = molecular target: T1, ScECM4 (Saccharomyces cerevisiae, UniProt P36156); assay: absorbance loss at […] nm; HPLC of menadione at […] nm; type: biochemical; settings: GSH 0.05 to 1 mM (spectrophotometry) or 2 mM (HPLC) required; 30 mM Tris-HCl pH 8.0, 1 mM EDTA; room temperature (HPLC)
T1 construct: gene ECM4; full-length, C-terminal His-tag kept (pET-26b NdeI/XhoI), expressed in E. coli Rosetta2 (DE3) pLysS; dimer
T1 sequence (P36156 1-370): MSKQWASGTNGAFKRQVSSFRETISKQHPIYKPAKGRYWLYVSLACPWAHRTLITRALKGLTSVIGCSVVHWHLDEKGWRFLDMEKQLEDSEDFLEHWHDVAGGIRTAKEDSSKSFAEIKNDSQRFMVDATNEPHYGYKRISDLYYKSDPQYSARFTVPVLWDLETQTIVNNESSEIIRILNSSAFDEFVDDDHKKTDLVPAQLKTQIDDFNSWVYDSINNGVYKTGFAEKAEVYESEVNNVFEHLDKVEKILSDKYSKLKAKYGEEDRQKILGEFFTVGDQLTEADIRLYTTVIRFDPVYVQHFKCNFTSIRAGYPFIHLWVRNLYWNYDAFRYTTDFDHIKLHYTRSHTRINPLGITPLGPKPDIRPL

[1] = molecular target: the molecule itself; assay: crystal structure; microbatch under paraffin oil at 278 K, 20% PEG 2000 MME, 0.1 M Tris-HCl pH 7.0; space group P2(1), two monomers in the asymmetric unit; apo crystals and crystals soaked with 5 mM GS-menadione

CC1=C(SC[C@H](NC(=O)CC[C@H](N)C(=O)O)C(=O)NCC(=O)O)C(=O)c2ccccc2C1=O [GS-menadione]
absorbance loss at 430 nm; HPLC of menadione at 250 nm (ScECM4): ScECM4 activity measurements stated for reduction of GS-menadione to menadione in presence of glutathione

B1: ScECM4 (ECM4 from Saccharomyces cerevisiae, glutathionyl-hydroquinone reductase, Xi-class glutathione transferase) (enzyme, UniProt P36156 1-370, looked up)
chain: MSKQWASGTNGAFKRQVSSFRETISKQHPIYKPAKGRYWLYVSLACPWAHRTLITRALKGLTSVIGCSVVHWHLDEKGWRFLDMEKQLEDSEDFLEHWHDVAGGIRTAKEDSSKSFAEIKNDSQRFMVDATNEPHYGYKRISDLYYKSDPQYSARFTVPVLWDLETQTIVNNESSEIIRILNSSAFDEFVDDDHKKTDLVPAQLKTQIDDFNSWVYDSINNGVYKTGFAEKAEVYESEVNNVFEHLDKVEKILSDKYSKLKAKYGEEDRQKILGEFFTVGDQLTEADIRLYTTVIRFDPVYVQHFKCNFTSIRAGYPFIHLWVRNLYWNYDAFRYTTDFDHIKLHYTRSHTRINPLGITPLGPKPDIRPL
notes: ECM4 (Gto2), Saccharomyces cerevisiae, YKR076W; Homodimer in the crystal; The printed end of the C-terminal domain (E372) probably counts residues added by the XhoI site and vector before the His tag (surmised); also called Gto2; GHR ScECM4; source: E. coli Rosetta2 (DE3) pLysS, purified (Ni-NTA, gel filtration on Superdex 200); not shown: His6, C-terminal, kept
stoichiometry N [1]: 2

B2: glutathionylated ScECM4 (ScECM4-SG) (enzyme, Saccharomyces cerevisiae, UniProt P36156 1-370, looked up)
chain: MSKQWASGTNGAFKRQVSSFRETISKQHPIYKPAKGRYWLYVSLACPWAHRTLITRALKGLTSVIGCSVVHWHLDEKGWRFLDMEKQLEDSEDFLEHWHDVAGGIRTAKEDSSKSFAEIKNDSQRFMVDATNEPHYGYKRISDLYYKSDPQYSARFTVPVLWDLETQTIVNNESSEIIRILNSSAFDEFVDDDHKKTDLVPAQLKTQIDDFNSWVYDSINNGVYKTGFAEKAEVYESEVNNVFEHLDKVEKILSDKYSKLKAKYGEEDRQKILGEFFTVGDQLTEADIRLYTTVIRFDPVYVQHFKCNFTSIRAGYPFIHLWVRNLYWNYDAFRYTTDFDHIKLHYTRSHTRINPLGITPLGPKPDIRPL
modifications: glutathione covalently bound to C46 (mixed disulfide bond)
notes: ECM4 (Gto2), Saccharomyces cerevisiae, YKR076W; same construct as m1, glutathionylated at C46 after soaking or co-crystallisation with GS-menadione; Same construct as m1, with glutathione on C46; Homodimer in the crystal; source: E. coli Rosetta2 (DE3) pLysS, purified (Ni-NTA, gel filtration); crystals soaked with 5 mM GS-menadione; not shown: His6, C-terminal, kept
stoichiometry N [1]: 2

From PMC5063366, “Crystal Structure of Saccharomyces cerevisiae ECM4, a Xi-Class Glutathione Transferase that Reacts with Glutathionyl-(hydro)quinones” (PLoS ONE, 2016)
